Patent publication EP1722229B1

How the values were obtained:
protein C (PC) [1] = target: protein C (PC) (UniProt P04070); assay: cell-based or functional assay
protein C (PC) [2] = target: protein C (PC) (UniProt P04070); assay: derived from the shift of the Km of PC activation by thrombin on EA.hy926 endothelial cells with 2 µM rhsEPCR

protein C (PC), sequence (P04070 43-461): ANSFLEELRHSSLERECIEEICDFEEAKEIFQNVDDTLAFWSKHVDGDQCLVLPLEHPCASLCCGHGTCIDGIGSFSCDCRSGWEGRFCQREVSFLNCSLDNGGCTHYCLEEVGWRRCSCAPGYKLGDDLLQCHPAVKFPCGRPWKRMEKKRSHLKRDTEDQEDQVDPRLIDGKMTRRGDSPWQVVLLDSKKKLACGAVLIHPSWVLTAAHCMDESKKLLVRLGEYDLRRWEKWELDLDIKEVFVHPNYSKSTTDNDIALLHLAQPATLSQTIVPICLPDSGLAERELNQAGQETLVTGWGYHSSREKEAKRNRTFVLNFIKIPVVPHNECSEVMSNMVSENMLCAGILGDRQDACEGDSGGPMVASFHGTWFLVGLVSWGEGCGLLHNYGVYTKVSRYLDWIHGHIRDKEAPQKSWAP

Km of PC activation by thrombin on the surface of endothelial cells in the presence of rhsEPCR 2 µM (protein C (PC) [1]): 1 µM
Ki (protein C (PC) [2]): 70 nM
Substance: recombinant human soluble EPCR (rhsEPCR) (receptor)
